Experimental findings from patent EP4722245A1, “ANTIBODY TARGETING ITGA2, ANTIBODY DRUG CONJUGATE THEREOF, AND USE” (Foreseen Technology (Beijing) Co., Ltd., priority 2023, dated 2024) are described below.

Assay [1] concerns the target T1, ITGA2-His (UniProt P17301 30-1132, limits assumed).
T1 construct: Coated on the ELISA plate at 2 ug/mL; whole entry P17301 is named; also called ITGA2 protein; not shown: His tag
T1 sequence (looked up): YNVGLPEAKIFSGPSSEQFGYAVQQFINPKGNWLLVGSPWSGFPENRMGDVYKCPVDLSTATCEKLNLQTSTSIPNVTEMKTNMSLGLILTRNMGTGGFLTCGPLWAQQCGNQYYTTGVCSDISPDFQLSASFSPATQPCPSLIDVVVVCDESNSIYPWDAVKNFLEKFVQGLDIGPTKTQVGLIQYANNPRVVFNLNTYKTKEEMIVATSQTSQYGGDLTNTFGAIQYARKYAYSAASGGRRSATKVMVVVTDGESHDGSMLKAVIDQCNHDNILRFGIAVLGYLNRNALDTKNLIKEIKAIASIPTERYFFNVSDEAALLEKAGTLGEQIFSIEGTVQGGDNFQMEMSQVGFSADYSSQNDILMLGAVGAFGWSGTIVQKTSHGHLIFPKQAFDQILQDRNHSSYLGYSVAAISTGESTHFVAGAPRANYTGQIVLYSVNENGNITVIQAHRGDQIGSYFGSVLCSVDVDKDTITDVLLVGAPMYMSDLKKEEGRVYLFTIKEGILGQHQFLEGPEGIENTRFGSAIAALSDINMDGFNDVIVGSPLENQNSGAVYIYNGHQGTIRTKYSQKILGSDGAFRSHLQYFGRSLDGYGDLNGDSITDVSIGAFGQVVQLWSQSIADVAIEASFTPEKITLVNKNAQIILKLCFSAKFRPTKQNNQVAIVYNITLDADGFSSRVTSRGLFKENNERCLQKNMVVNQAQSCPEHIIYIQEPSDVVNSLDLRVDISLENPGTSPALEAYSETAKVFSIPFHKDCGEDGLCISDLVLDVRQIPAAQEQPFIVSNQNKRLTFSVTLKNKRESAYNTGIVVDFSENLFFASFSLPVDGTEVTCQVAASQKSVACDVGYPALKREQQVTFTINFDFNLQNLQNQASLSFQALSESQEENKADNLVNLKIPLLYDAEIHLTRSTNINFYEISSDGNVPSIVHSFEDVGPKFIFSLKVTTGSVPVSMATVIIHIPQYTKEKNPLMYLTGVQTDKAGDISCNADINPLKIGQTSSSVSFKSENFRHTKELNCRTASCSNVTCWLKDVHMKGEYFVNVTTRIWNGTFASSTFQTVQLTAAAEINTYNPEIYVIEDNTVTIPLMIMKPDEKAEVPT
As to the kind of experiment: ELISA, plate coated with 2 ug/mL ITGA2-His, anti-human IgG-Fc-HRP detection. For orientation: In an ELISA, binding on a coated surface is turned into a signal by an enzyme label.

For assay [2], the target named is T2, ITGA2 protein on the surface of human tumor cells (human, UniProt P17301 30-1181).
T2 construct: whole, on cells; Endogenously expressed; the cell line is named under assay or readout; also called Integrin alpha-2; ITGA2-positive HuCCT1 cells
T2 sequence (looked up): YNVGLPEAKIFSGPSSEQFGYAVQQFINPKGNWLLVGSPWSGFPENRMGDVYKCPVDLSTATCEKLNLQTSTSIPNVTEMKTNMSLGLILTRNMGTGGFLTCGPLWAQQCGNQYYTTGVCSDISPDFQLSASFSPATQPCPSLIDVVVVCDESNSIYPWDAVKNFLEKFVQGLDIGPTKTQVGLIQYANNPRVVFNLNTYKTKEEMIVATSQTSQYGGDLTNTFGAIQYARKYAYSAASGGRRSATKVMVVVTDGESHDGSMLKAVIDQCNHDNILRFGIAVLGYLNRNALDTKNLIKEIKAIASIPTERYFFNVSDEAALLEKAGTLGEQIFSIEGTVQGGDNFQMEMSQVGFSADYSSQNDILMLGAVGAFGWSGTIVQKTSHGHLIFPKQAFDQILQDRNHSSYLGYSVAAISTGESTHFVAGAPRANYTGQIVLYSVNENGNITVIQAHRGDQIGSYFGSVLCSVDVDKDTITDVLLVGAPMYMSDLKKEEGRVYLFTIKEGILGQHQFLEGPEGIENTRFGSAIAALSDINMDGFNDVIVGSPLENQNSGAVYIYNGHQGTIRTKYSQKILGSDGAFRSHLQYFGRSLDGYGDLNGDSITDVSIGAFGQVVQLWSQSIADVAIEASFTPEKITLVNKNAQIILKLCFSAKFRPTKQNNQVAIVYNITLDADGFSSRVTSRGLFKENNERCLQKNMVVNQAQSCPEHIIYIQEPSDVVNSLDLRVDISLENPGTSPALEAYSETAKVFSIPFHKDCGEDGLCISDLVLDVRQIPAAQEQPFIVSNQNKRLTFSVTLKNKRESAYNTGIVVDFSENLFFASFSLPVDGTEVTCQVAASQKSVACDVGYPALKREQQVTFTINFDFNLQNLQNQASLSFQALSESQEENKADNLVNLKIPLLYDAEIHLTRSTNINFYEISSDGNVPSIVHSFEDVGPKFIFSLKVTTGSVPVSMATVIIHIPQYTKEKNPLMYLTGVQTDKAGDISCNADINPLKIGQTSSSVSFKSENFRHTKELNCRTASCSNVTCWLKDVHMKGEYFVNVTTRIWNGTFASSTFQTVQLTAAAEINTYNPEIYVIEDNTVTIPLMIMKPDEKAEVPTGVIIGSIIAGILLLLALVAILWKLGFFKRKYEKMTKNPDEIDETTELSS
The assay is described as follows: flow cytometry on HuCCT1 cells. A general note: In flow cytometry, cells or beads pass a laser one at a time.

For orientation: EC50 means the concentration that produces a half-maximal response.

B1: Chimeric mouse antibody FS002-A153 (antibody, human IgG1, kappa, V domains shown)
VH: QVQLQQSGAELVRPGASVTLSCKASGYTFTDYEMHWVKQTPVHGLEWIGTIDPETGGTTYNQKFNDKATLTADKSSSTAYMDLRSLTSEDSAVYYCSRSGYYVSSYESYAMDYWGQGTSVTVSS
VL: DIVMTQSPSSLTVTAGEKVTMSCKSSQSLLNSGNQKNYLTWYQQKPGQPPKLLIYGASTRESGVPDRFTGSGSGTDFTLTISSVQAEDLAVYYCQNDYSYPFTFGSGTKLEIKR
notes: Chimeric
On to B1, for which the results for the EC50 in assay [1] and in assay [2] were 0.008 nM and 0.333 nM, respectively.

B2: Humanized antibody FS002-A208-H4L4 (antibody, human IgG1, kappa, V domains shown)
VH: QVQLVQSGAEVKKPGASVKVSCKASGYTFTDYEIHWVRQAPGQGLEWIGAIDPETGGTNYNQKFQGRVTLTADTSISTAYMELSRLRSDDTAVYYCSRSGYYVSNYESYAMDYWGQGTTVTVSS
VL: DIQMTQSPSSLSASVGDRVTITCRASQNVGTNVAWYQQKPEKAPKSLIYSASYRFSGVPSRFSGSGSGTDFTLTISSLQPEDFATYYCQQYNIYPLSFGGGTKLELKR
notes: Humanized IgG1 kappa
For B2, the EC50 in assay [1] amounted to 0.017 nM; in assay [2], 0.6 nM.

B3: Humanized antibody FS002-A226-H4L3 (antibody, human IgG1, kappa, V domains shown)
VH: QVQLVQSGAEVKKPGASVKVSCKASGYTFTDYEIHWVRQAPGQGLEWIGAIDPETGGTNYNQKFQGRVTLTADTSISTAYMELSRLRSDDTAVYYCSRSGYYVSNYESYAMDYWGQGTTVTVSS
VL: DIQITQSPSSMSASVGDRVTITCKASQDIKSYLSWYQQKPGKAPKLLIYDTSNLASGVPSRFSGSGSGTDYTLTISSLQPEDFATYYCQQWSSYPFTFGGGTKLEIKR
notes: Humanized IgG1 kappa
In the case of B3, the EC50 in assay [1] is 0.024 nM; in assay [2] it was 0.533 nM.

B4: Humanized antibody FS002-A226-H5L4 (antibody, human IgG1, kappa, V domains shown)
VH: QVQLVQSGAEVKKPGASVKVSCKASGYTFTDYEIHWVRQAPGQGLEWMGAIDPETGGTNYAQKFQGRVTMTADTSISTAYMELSRLRSDDTAVYYCSRSGYYVSNYESYAMDYWGQGTTVTVSS
VL: DIQLTQSPSSLSASVGDRVTITCRASQDIKSYLSWYQQKPGKAPKLLIYDTSNLASGVPSRFSGSGSGTDFTLTISSLQPEDFATYYCQQWSSYPFTFGGGTKLEIKR
notes: Humanized IgG1 kappa
For the molecule B4, the EC50 came out at 0.022 nM in assay [1] and 0.647 nM in assay [2].

B5: Humanized antibody FS002-A226-H3L4 (antibody, human IgG1, kappa, V domains shown)
VH: QLQLVQSGAEVKKPGASVKVSCKASGYTFTDYEIHWVRQAPGQGLEWIGAIDPETGGTNYNQKFNDRVTLTADTSISTAYMELSRLRSDDTAVYYCSRSGYYVSNYESYAMDYWGQGTTVTVSS
VL: DIQLTQSPSSLSASVGDRVTITCRASQDIKSYLSWYQQKPGKAPKLLIYDTSNLASGVPSRFSGSGSGTDFTLTISSLQPEDFATYYCQQWSSYPFTFGGGTKLEIKR
notes: Humanized IgG1 kappa
Regarding B5, the EC50 in assay [1] amounted to 0.023 nM; in assay [2], 0.28 nM.

B6: Humanized antibody FS002-A226-H5L3 (antibody, human IgG1, kappa, V domains shown)
VH: QVQLVQSGAEVKKPGASVKVSCKASGYTFTDYEIHWVRQAPGQGLEWMGAIDPETGGTNYAQKFQGRVTMTADTSISTAYMELSRLRSDDTAVYYCSRSGYYVSNYESYAMDYWGQGTTVTVSS
VL: DIQITQSPSSMSASVGDRVTITCKASQDIKSYLSWYQQKPGKAPKLLIYDTSNLASGVPSRFSGSGSGTDYTLTISSLQPEDFATYYCQQWSSYPFTFGGGTKLEIKR
notes: Humanized IgG1 kappa
Take B6: the concentration giving a half-maximal response (EC50) turned out to be 0.023 nM in assay [1] and 0.58 nM in assay [2].

B7: Humanized antibody FS002-A208-H3L4 (antibody, human IgG1, kappa, V domains shown)
VH: QVQLVQSGAEVKKPGASVKVSCKASGYTFTDYEIHWVRQAPGQGLEWIGAIDPETGGTNYNQKFNDRVTLTADKSISTAYMELSRLRSDDTAVYYCSRSGYYVSNYESYAMDYWGQGTTVTVSS
VL: DIQMTQSPSSLSASVGDRVTITCRASQNVGTNVAWYQQKPEKAPKSLIYSASYRFSGVPSRFSGSGSGTDFTLTISSLQPEDFATYYCQQYNIYPLSFGGGTKLELKR
notes: Humanized IgG1 kappa
As for B7, the values for the EC50 in assay [1] and in assay [2] were 0.022 nM and 0.587 nM, respectively.

B8: Humanized antibody FS002-A208-H5L4 (antibody, human IgG1, kappa, V domains shown)
VH: QVQLVQSGAEVKKPGASVKVSCKASGYTFTDYEIHWVRQAPGQGLEWMGAIDPETGGTNYAQKFQGRVTMTADTSISTAYMELSRLRSDDTAVYYCSRSGYYVSNYESYAMDYWGQGTTVTVSS
VL: DIQMTQSPSSLSASVGDRVTITCRASQNVGTNVAWYQQKPEKAPKSLIYSASYRFSGVPSRFSGSGSGTDFTLTISSLQPEDFATYYCQQYNIYPLSFGGGTKLELKR
notes: Humanized IgG1 kappa
As for B8, the values for the EC50 in assay [1] and in assay [2] were 0.018 nM and 0.627 nM, respectively.
